T1: human GITR (human, UniProt Q9Y5U5 26-161, limits assumed)
T1 sequence (looked up): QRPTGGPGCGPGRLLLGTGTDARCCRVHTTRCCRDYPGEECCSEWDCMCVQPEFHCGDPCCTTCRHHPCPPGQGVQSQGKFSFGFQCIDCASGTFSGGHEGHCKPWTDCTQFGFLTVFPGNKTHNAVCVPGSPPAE

T2: human OX40 (human, UniProt P43489 29-216)
T2 sequence (looked up): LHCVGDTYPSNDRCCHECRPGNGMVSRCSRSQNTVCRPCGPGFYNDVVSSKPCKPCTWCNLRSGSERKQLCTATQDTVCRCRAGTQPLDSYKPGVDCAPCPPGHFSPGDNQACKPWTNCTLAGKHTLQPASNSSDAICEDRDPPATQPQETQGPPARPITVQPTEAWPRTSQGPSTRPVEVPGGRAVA

T3: cCD137-mFc-Avi (cynomolgus; mouse)
T3 construct: also called cynomolgus CD137-mFc-Avi; Cyno CD137-mFc-Avi; not shown: mouse IgG2a Fc domain (mIgG2a Fc)
T3 chain: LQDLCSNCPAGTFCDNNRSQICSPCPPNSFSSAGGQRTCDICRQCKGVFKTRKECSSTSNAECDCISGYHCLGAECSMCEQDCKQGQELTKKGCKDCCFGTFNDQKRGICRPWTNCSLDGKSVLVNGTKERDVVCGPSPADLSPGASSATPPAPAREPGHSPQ


Key:
[1] = target: T4, cPD-L1-His (Acro Biosystems, PD1-C52H4) (cynomolgus, UniProt Q9NZQ7 19-238 (human entry)); assay: SPR, antibody captured on Protein A chip, antigen in flow
T4 construct: bought; also called Cyno PD-L1-His; Cynomolgus PD-L1-His; not shown: His tag of the bought product
T4 sequence (Q9NZQ7 other isoform, or with tags, fused parts or gaps): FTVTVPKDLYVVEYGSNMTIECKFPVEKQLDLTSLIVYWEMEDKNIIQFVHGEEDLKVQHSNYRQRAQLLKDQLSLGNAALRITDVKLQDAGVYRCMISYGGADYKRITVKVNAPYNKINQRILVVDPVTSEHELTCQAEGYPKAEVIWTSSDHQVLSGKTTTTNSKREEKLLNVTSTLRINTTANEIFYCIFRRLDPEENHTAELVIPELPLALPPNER

[2] = target: T5, biotinylated hPD-L1-Avi-His (Acro Biosystems, PD1-H82E5) (human, UniProt Q9NZQ7 19-238, biotinylated); assay: as above
T5 construct: bought; also called Human PD-L1-His; not shown: Avi and His tags of the bought product
T5 sequence (Q9NZQ7 19-238): as the sequence (Q9NZQ7 other isoform, or with tags, fused parts or gaps) above, with T33A, S34A, N62S, Q68R, R82Q, L173F, A185T, I192T, L215H counted along it

[3] = target: T1, human GITR; assay: SPR, receptor amine-coupled to CM5 (~1000 RU)
Method: (§1) The specificity of the anti-human CD137 Fcabs for human CD137 compared to other related TNFSFR family members was tested. 8 of the Fcabs were tested in mock mAb² (HeID1.3) format and measured by SPR in a Biacore T200 (GE Healthcare) by testing for binding to other human TNFRSF receptors: CD40, OX40 and GITR. Amine coupling (amine coupling kit, GE Healthcare, BR-1000-50) was used to coat human CD40, GITR and OX40 to approximately 1000 RU in Biacore CM5 chips (GE Healthcare, cat no 29149603). […] The chip was regenerated by injection of 10 mM glycine pH 2.5 for 12 s at 30 μl/min. Antibodies specific to the different TNFRSF members were used as positive controls to verify Biacore chip coating. Data was double reference subtracted and analysed using BIAevaluation 3.2 software.

[4] = target: T2, human OX40; assay: SPR, receptor amine-coupled to CM5 (~1000 RU)
Method: as §1

[5] = target: human CD40 (human, UniProt P25942 21-193, limits assumed); assay: SPR, receptor amine-coupled to CM5 (~1000 RU)
Sequence of human CD40 (P25942 21-193 limits assumed): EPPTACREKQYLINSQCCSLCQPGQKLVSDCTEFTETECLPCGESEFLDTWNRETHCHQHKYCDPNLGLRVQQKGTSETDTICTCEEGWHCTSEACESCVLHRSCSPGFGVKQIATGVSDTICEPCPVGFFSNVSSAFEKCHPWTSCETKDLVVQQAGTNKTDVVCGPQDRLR
Method: as §1

[6] = target: human CD137, cell-surface (human, UniProt Q07011 24-255); assay: cell-based or functional assay
Sequence of human CD137, cell-surface (Q07011 24-255): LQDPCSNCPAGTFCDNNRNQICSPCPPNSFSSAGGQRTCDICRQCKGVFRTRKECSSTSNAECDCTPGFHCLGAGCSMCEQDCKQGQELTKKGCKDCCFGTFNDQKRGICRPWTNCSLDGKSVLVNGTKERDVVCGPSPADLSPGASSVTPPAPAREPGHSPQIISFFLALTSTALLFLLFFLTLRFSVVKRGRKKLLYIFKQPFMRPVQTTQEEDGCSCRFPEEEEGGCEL

[7] = target: T6, hCD137-mFc-Avi (human; mouse, UniProt Q07011 24-186, biotin on the Avi sequence where the biotinylated form was used); assay: SPR, mAb^2 captured by anti-human Fab, antigen in flow, 1:1 Langmuir fit
T6 construct: also called human CD137-mFc-Avi; dimeric human CD137; not shown: mouse IgG2a Fc domain (mIgG2a Fc)
T6 sequence (Q07011 24-186): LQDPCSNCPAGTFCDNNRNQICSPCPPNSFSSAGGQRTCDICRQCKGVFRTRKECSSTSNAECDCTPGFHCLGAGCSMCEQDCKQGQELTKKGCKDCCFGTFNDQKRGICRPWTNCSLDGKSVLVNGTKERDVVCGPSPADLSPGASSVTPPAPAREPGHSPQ
Method: (§2) An anti-human Fab capture antibody was immobilised on all four flow cells of a CM5 series S chip (GE Healthcare #BR-1005-30) to an average surface density of 6000 RU following the manufacturer's recommendations (GE Healthcare, human Fab capture Kit, #28958325). […] Each mAb² was captured to approximately 150 RU by injecting a 3 μg/ml solution of mAb² diluted in HBS-EP+ buffer (GE Healthcare #BR1006-69) for 60 seconds at 30 μl/min. Then different concentrations of human, cyno or mouse CD137 antigen (unbiotinylated human, cyno or mouse CD137-mFc-Avi or human CD137-Avi-His) in HBS-EP+ buffer were flowed over the chip for 3 min at 60 μl/min and then allowed to dissociate for 10 minutes. After each antigen concentration the chip was regenerated by infecting 10 mM glycine pH 2.1 at a flow rate of 30 μl/min for 30 seconds. Buffer HBS-EP+ was injected before the highest concentration of antigen and after the lowest concentration of antigen for reference subtraction, and one of the concentrations at random was repeated twice. The binding kinetics were fit with a 1:1 Langmuir model to generate equilibrium binding constants (KD) for each sample. Data analysis was performed with BiaEvaluation software version 3.2.

[8] = target: T7, hCD137-Avi-His (human, UniProt Q07011 24-186); assay: as above
T7 construct: also called human CD137-Avi-His; monomeric human CD137
T7 sequence (Q07011 24-186): as above
Method: as §2

[9] = target: T3, cCD137-mFc-Avi; assay: as above
Method: as §2

| Binder | Kd [1] [nM] | Kd [2] [nM] | binding result [3] | binding result [4] | binding result [5] | EC50, NF-κB luciferase assay, crosslinked with Protein L (+XL) [6] [nM] | Kd [7] [nM] | Human monomeric CD137 KD fold difference relative to human dimeric KD [8] [fold] | Kd [9] [nM] |
| --- | --- | --- | --- | --- | --- | --- | --- | --- | --- |
| G1-AA/lam-G02v3 (antibody, human IgG1, L234A L235A, V domains shown, anti-PD-L1 IgG1 with LALA, lambda light chain; also called G1-AA/lambdav3; G1-AA/Iam-G02v3) VH: EVQLVQSGAEVKRPGASVKVSCKASGYTFTSYGISWVRQAPGQGLEWMGWISAYSGGTNYAQKLQGRVTMTTDTSTSTAYMELRSLRSDDTAVYYCARDLFPTIFGVSYYYYWGQGTLVTVSS VL: QSALTQPASVSGSPGQSITISCTGTSSDVGGYNYVSWYQQFPGKAPKLMIFEVTNRPSGVSDRFSGSKSDNTASLTISGLQAEDEAEYYCSSFKRGSTLVVFG | 2.45 | 1.34 |  |  |  |  |  |  |  |
| G1-AA/E05v2 (antibody, human IgG1, kappa, L234A L235A, V domains shown, anti-PD-L1 IgG1 with LALA) VH: EVQLVQSGAEVKRPGASVKVSCKASGYTFTSYGISWVRQAPGQGLEWMGWISAYSGGTNYAQKLQGRVTMTTDTSTSTAYMELRSLRSDDTAVYYCARDLFPTIFGVSYYYYWGQGTLVTVSS VL: DIQMTQSPSTLSASVGDRVTITCRASQSISGRLAWYQQKPGKAPNLLIYEASNLESGVPSRFSGSGSGTEFTLTISSLQPEDFATYYCQQSYSTPRVTFGQGTKVEIKR | 0.89 | 0.5 |  |  |  |  |  |  |  |
| FS22-053-008/HeID1.3 (bispecific antibody, human IgG1, kappa, mock mAb^2; also called FS22-053-008 (mock mAb^2 format)) heavy: QVQLQESGPGLVRPSQTLSLTCTVSGSTFSGYGVNWVRQPPGRGLEWIGMIWGDGNTDYNSALKSRVTMLVDTSKNQFSLRLSSVTAADTAVYYCARERDYRLDYWGQGSLVTVSSASTKGPSVFPLAPSSKSTSGGTAALGCLVKDYFPEPVTVSWNSGALTSGVHTFPAVLQSSGLYSLSSVVTVPSSSLGTQTYICNVNHKPSNTKVDKKVEPKSCDKTHTCPPCPAPELLGGPSVFLFPPKPKDTLMISRTPEVTCVVVDVSHEDPEVKFNWYVDGVEVHNAKTKPREEQYNSTYRVVSVLTVLHQDWLNGKEYKCKVSNKALPAPIEKTISKAKGQPREPQVYTLPPSRDELNPPYLFSNQVSLTCLVKGFYPSDIAVEWESNGQPENNYKTTPPVLDSDGSFFLYSKLTVDYWRWLEGNVFSCSVMHEALHNHYTQKSLSLSPG light: DIQMTQSPASLSASVGETVTITCRASGNIHNYLAWYQQKQGKSPQLLVYNAKTLADGVPSRFSGSGSGTQYSLKINSLQPEDFGSYYCQHFWSTPRTFGGGTKLEIKRTVAAPSVFIFPPSDEQLKSGTASVVCLLNNFYPREAKVQWKVDNALQSGNSQESVTEQDSKDSTYSLSSTLTLSKADYEKHKVYACEVTHQGLSSPVTKSFNRGEC |  |  | no binding (tested: 1 µM) | no binding (tested: 1 µM) | no binding (tested: 1 µM) | 26.3 | 4.2 | 170 | 0.9 |
| FS22-172-004/HeID1.3 (bispecific antibody, human IgG1, kappa, mock mAb^2) heavy: QVQLQESGPGLVRPSQTLSLTCTVSGSTFSGYGVNWVRQPPGRGLEWIGMIWGDGNTDYNSALKSRVTMLVDTSKNQFSLRLSSVTAADTAVYYCARERDYRLDYWGQGSLVTVSSASTKGPSVFPLAPSSKSTSGGTAALGCLVKDYFPEPVTVSWNSGALTSGVHTFPAVLQSSGLYSLSSVVTVPSSSLGTQTYICNVNHKPSNTKVDKKVEPKSCDKTHTCPPCPAPELLGGPSVFLFPPKPKDTLMISRTPEVTCVVVDVSHEDPEVKFNWYVDGVEVHNAKTKPREEQYNSTYRVVSVLTVLHQDWLNGKEYKCKVSNKALPAPIEKTISKAKGQPREPQVYTLPPSRDELNYIYPPYNQVSLTCLVKGFYPSDIAVEWESNGQPENNYKTTPPVLDSDGSFFLYSKLTVGADRWLEGNVFSCSVMHEALHNHYTQKSLSLSPG light: DIQMTQSPASLSASVGETVTITCRASGNIHNYLAWYQQKQGKSPQLLVYNAKTLADGVPSRFSGSGSGTQYSLKINSLQPEDFGSYYCQHFWSTPRTFGGGTKLEIKRTVAAPSVFIFPPSDEQLKSGTASVVCLLNNFYPREAKVQWKVDNALQSGNSQESVTEQDSKDSTYSLSSTLTLSKADYEKHKVYACEVTHQGLSSPVTKSFNRGEC |  |  | no binding (tested: 1 µM) | no binding (tested: 1 µM) | no binding (tested: 1 µM) |  | 4.3 | > 200 | 3.5 |
| FS22-172-003/HeID1.3 (bispecific antibody, human IgG1, kappa, mock mAb^2 without LALA) heavy: QVQLQESGPGLVRPSQTLSLTCTVSGSTFSGYGVNWVRQPPGRGLEWIGMIWGDGNTDYNSALKSRVTMLVDTSKNQFSLRLSSVTAADTAVYYCARERDYRLDYWGQGSLVTVSSASTKGPSVFPLAPSSKSTSGGTAALGCLVKDYFPEPVTVSWNSGALTSGVHTFPAVLQSSGLYSLSSVVTVPSSSLGTQTYICNVNHKPSNTKVDKKVEPKSCDKTHTCPPCPAPELLGGPSVFLFPPKPKDTLMISRTPEVTCVVVDVSHEDPEVKFNWYVDGVEVHNAKTKPREEQYNSTYRVVSVLTVLHQDWLNGKEYKCKVSNKALPAPIEKTISKAKGQPREPQVYTLPPSRDELPYIIPPYNQVSLTCLVKGFYPSDIAVEWESNGQPENNYKTTPPVLDSDGSFFLYSKLTVGADRWLEGNVFSCSVMHEALHNHYTQKSLSLSPG light: DIQMTQSPASLSASVGETVTITCRASGNIHNYLAWYQQKQGKSPQLLVYNAKTLADGVPSRFSGSGSGTQYSLKINSLQPEDFGSYYCQHFWSTPRTFGGGTKLEIKRTVAAPSVFIFPPSDEQLKSGTASVVCLLNNFYPREAKVQWKVDNALQSGNSQESVTEQDSKDSTYSLSSTLTLSKADYEKHKVYACEVTHQGLSSPVTKSFNRGEC |  |  | no binding (tested: 1 µM) | no binding (tested: 1 µM) | no binding (tested: 1 µM) | 32.6 | 1.5 | > 200 | 1.3 |
| FS22-053-011/HeID1.3 (bispecific antibody, human IgG1, kappa, mock mAb^2; also called FS22-053-011 (mock mAb^2 format)) heavy: QVQLQESGPGLVRPSQTLSLTCTVSGSTFSGYGVNWVRQPPGRGLEWIGMIWGDGNTDYNSALKSRVTMLVDTSKNQFSLRLSSVTAADTAVYYCARERDYRLDYWGQGSLVTVSSASTKGPSVFPLAPSSKSTSGGTAALGCLVKDYFPEPVTVSWNSGALTSGVHTFPAVLQSSGLYSLSSVVTVPSSSLGTQTYICNVNHKPSNTKVDKKVEPKSCDKTHTCPPCPAPELLGGPSVFLFPPKPKDTLMISRTPEVTCVVVDVSHEDPEVKFNWYVDGVEVHNAKTKPREEQYNSTYRVVSVLTVLHQDWLNGKEYKCKVSNKALPAPIEKTISKAKGQPREPQVYTLPPSRDELNPPYLFSNQVSLTCLVKGFYPSDIAVEWESNGQPENNYKTTPPVLDSDGSFFLYSKLTVDYWRWTDGNVFSCSVMHEALHNHYTQKSLSLSPG light: DIQMTQSPASLSASVGETVTITCRASGNIHNYLAWYQQKQGKSPQLLVYNAKTLADGVPSRFSGSGSGTQYSLKINSLQPEDFGSYYCQHFWSTPRTFGGGTKLEIKRTVAAPSVFIFPPSDEQLKSGTASVVCLLNNFYPREAKVQWKVDNALQSGNSQESVTEQDSKDSTYSLSSTLTLSKADYEKHKVYACEVTHQGLSSPVTKSFNRGEC |  |  | no binding (tested: 1 µM) | no binding (tested: 1 µM) | no binding (tested: 1 µM) |  | 5.5 | > 200 | 1.3 |
